Laboratory results taken from paper PMC4715182, “Structure of a Chaperone-Usher Pilus Reveals the Molecular Basis of Rod Uncoiling” (Cell, 2016).
Positions count from the first letter of the chain named. Several values for one entry are separate records, joined by “and”; a condition that tells them apart may be missing. Equal entries are not always repeated.

Columns and labels:
PapA Gln106AzF, P04127 = target: T1, PapA Gln106AzF, P04127; assay: pilus rod formation quantified by Sypro Ruby signal after ultracentrifugation; conditions: chain shown with the change;; parent: est. 100; read off a plot
T1 chain: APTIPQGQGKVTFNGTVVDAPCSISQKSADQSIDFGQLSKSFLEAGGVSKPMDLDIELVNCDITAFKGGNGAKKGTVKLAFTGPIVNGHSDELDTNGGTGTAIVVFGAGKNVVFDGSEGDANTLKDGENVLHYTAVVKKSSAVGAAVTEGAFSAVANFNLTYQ

PapA Lys27AzF, P04127 = target: T2, PapA Lys27AzF, P04127; assay: as above; conditions: chain shown with the change;; parent: est. 100; read off a plot
T2 chain: T1 chain with K27F, F106Q

PapA Val155AzF, P04127 = target: T3, PapA Val155AzF, P04127; assay: as above; conditions: chain shown with the change;; parent: est. 100; read off a plot
T3 chain: T1 chain with F106Q, V155F

PapA Lys50AzF, P04127 = target: T4, PapA Lys50AzF, P04127; assay: as above; conditions: chain shown with the change;; parent: est. 100; read off a plot
T4 chain: T1 chain with K50F, F106Q

[1] = target: the molecule itself; assay: in vitro rod formation (pelleting by ultracentrifugation, negative stain EM, Sypro Ruby signal); purified PapD:PapA complexes at 50 μM, 20°C, 72 hr; four rounds of ultracentrifugation at 57,000 x g; 20 mM Tris (pH 7.5), 150 mM NaCl
PapA Thr76AzF, P04127 = target: T5, PapA Thr76AzF, P04127; assay: pilus rod formation quantified by Sypro Ruby signal after ultracentrifugation; conditions: chain shown with the change;; parent: est. 100; read off a plot
T5 chain: T1 chain with T76F, F106Q

[2] = target: the molecule itself; assay: SEC; purified PapDHis:PapA left to polymerize at 20°C for 16 hr at 38 μM; Superdex 200 10/300 increase; donor-strand exchange (DSE) products
PapA Val18AzF, P04127 = target: T6, PapA Val18AzF, P04127; assay: pilus rod formation quantified by Sypro Ruby signal after ultracentrifugation; conditions: chain shown with the change;; parent: est. 100; read off a plot
T6 chain: T1 chain with V18F, F106Q

PapA Val143AzF, P04127 = target: T7, PapA Val143AzF, P04127; assay: as above; conditions: chain shown with the change;; parent: est. 100; read off a plot
T7 chain: T1 chain with F106Q, V143F

[3] = target: the molecule itself; assay: SEC-MALS; sample of PapD:PapA Val18AzF; Superdex 200 10/300 increase; molecular weight of each peak

B1: PapA wild-type, P04127 Q106AzF (protein)
chain: T1 chain
Which percent of parent (% of wild-type Sypro Ruby signal) (PapA Gln106AzF, P04127) does the source give for B1 here?
The percent of parent (% of wild-type Sypro Ruby signal) was 93.

B2: PapA wild-type, P04127 K27AzF (protein)
chain: T1 chain with K27F, F106Q
Which percent of parent (% of wild-type Sypro Ruby signal) (PapA Lys27AzF, P04127) does the source give for B2 here?
Its percent of parent (% of wild-type Sypro Ruby signal) is 93.

B3: PapA wild-type, P04127 V155AzF (protein)
chain: T1 chain with F106Q, V155F
With B3 as the binder, how does the percent of parent (% of wild-type Sypro Ruby signal) (PapA Val155AzF, P04127) read?
Its percent of parent (% of wild-type Sypro Ruby signal) is 5.

B4: PapA wild-type, P04127 K50AzF (protein)
chain: T1 chain with K50F, F106Q
With B4 as the binder, how does the percent of parent (% of wild-type Sypro Ruby signal) (PapA Lys50AzF, P04127) read?
Its percent of parent (% of wild-type Sypro Ruby signal) is 72.

B5: PapA Lys50AzF (natural protein)
chain: T1 chain with K50F, F106Q
modifications: p-azido-L-phenylalanine (AzF) at 50
notes: PapA of uropathogenic E. coli with AzF at residue 50 by amber suppression; The new residue is the unnatural amino acid p-azido-L-phenylalanine; written as F with the modification
Does B5 bind [1]?
Result: binds

B6: PapA Thr76AzF (natural protein)
chain: T1 chain with T76F, F106Q
modifications: p-azido-L-phenylalanine (AzF) at 76
notes: PapA of uropathogenic E. coli with AzF at residue 76 by amber suppression; The new residue is the unnatural amino acid p-azido-L-phenylalanine; written as F with the modification
Does B6 bind [1]?
Result: binds

B7: PapA Lys27AzF (natural protein)
chain: T1 chain with K27F, F106Q
modifications: p-azido-L-phenylalanine (AzF) at 27
notes: PapA of uropathogenic E. coli with AzF at residue 27 by amber suppression; The new residue is the unnatural amino acid p-azido-L-phenylalanine; written as F with the modification
Does B7 bind [1]?
Result: binds

B8: PapA Gln106AzF (natural protein)
chain: T1 chain
modifications: p-azido-L-phenylalanine (AzF) at 106
notes: PapA of uropathogenic E. coli with AzF at residue 106 by amber suppression; The new residue is the unnatural amino acid p-azido-L-phenylalanine; written as F with the modification
Does B8 bind [1]?
Result: binds

B9: PapA wild-type, P04127 T76AzF (protein)
chain: T1 chain with T76F, F106Q
B9 was tested. Which percent of parent (% of wild-type Sypro Ruby signal) (PapA Thr76AzF, P04127) did it give?
The percent of parent (% of wild-type Sypro Ruby signal) was 96.

B10: PapA Val143AzF (natural protein)
chain: T1 chain with F106Q, V143F
modifications: p-azido-L-phenylalanine (AzF) at 143
notes: PapA of uropathogenic E. coli with AzF at residue 143 by amber suppression; The new residue is the unnatural amino acid p-azido-L-phenylalanine; written as F with the modification
Does B10 bind [1]?
Result: binds

B11: PapA wild-type (natural protein)
chain: T1 chain with F106Q
notes: PapA, major P pilus rod subunit of uropathogenic E. coli; Ala1 is the very N terminus in the model; also called major pilus subunit PapA; P pilus rod subunit
Does B11 bind [2]?
Result: binds

B12: PapA wild-type, P04127 V18AzF (protein)
chain: T1 chain with V18F, F106Q
For B12, which percent of parent (% of wild-type Sypro Ruby signal) (PapA Val18AzF, P04127) is on record?
Its percent of parent (% of wild-type Sypro Ruby signal) is 5.

B13: PapA wild-type, P04127 V143AzF (protein)
chain: T1 chain with F106Q, V143F
With B13 as the binder, how does the percent of parent (% of wild-type Sypro Ruby signal) (PapA Val143AzF, P04127) read?
The percent of parent (% of wild-type Sypro Ruby signal) was 94.

B14: PapA Val18AzF (natural protein)
chain: T1 chain with V18F, F106Q
modifications: p-azido-L-phenylalanine (AzF) at 18
notes: PapA of uropathogenic E. coli with AzF at residue 18 by amber suppression; The new residue is the unnatural amino acid p-azido-L-phenylalanine; written as F with the modification; also called Val18 mutant
B14 was tested. Which “stoichiometry N” value [3] did it give?
The value was 2 and 3.

B15: PapA Asp126AzF (natural protein)
chain: T1 chain with F106Q, D126F
modifications: p-azido-L-phenylalanine (AzF) at 126
notes: PapA of uropathogenic E. coli with AzF at residue 126 by amber suppression; The new residue is the unnatural amino acid p-azido-L-phenylalanine; written as F with the modification
Does B15 bind [2]?
Result: binds

B16: PapA Val155AzF (natural protein)
chain: T1 chain with F106Q, V155F
modifications: p-azido-L-phenylalanine (AzF) at 155
notes: PapA of uropathogenic E. coli with AzF at residue 155 by amber suppression; The new residue is the unnatural amino acid p-azido-L-phenylalanine; written as F with the modification
Does B16 bind [2]?
Result: binds

B17: PapA Asn96AzF (natural protein)
chain: T1 chain with N96F, F106Q
modifications: p-azido-L-phenylalanine (AzF) at 96
notes: PapA of uropathogenic E. coli with AzF at residue 96 by amber suppression; The new residue is the unnatural amino acid p-azido-L-phenylalanine; written as F with the modification
Does B17 bind [2]?
Result: binds
